Test [1] concerns Wnt3a activities. Briefly: Wnt reporter gene assay. Type of test: cell-based. The following applies: Dkk2 at 125 nM. From the text: As discussed above, Wnt/β-catenin and Notch pathways play pivotal roles in the fate determination decision between epidermal and corneal epithelial lineage in mice. In particular, Dkk2 is necessary for corneal development and activation of Notch1 is required to maintain the corneal lineage. Dkk2 alone or in combination with Notch1 activation may facilitate and increase the efficiency of the reprogramming process in humans. Functional recombinant Dkk2 protein can be provided by Dr. Jie Zheng (St. Jude Children's Research Hospital) (see, e.g. Lin et al., Proc Natl Acad Sci USA 2010; 107:4194-4199). It inhibits Wnt3a activities with an IC50 value around 8 nM in the Wnt reporter gene assay(see, e.g. Lujan et al., Proc Natl Acad Sci USA 2012; 109:2527-2532). Therefore, we can use the 3-step coculture protocol as described above and add Dkk2 to the culture medium at various concentrations starting at 8 nM to the Step 1 co-culture, which is the reprogramming step. Phenotypic analysis can be performed in each of the 3 steps to determine the outcome of transdifferentiation by the expression of K12 and K10 in the cultured epithelial cells. The optimal concentration of Dkk2 that achieves the highest portion of K12+ cells in Step 3 can be determined. This concentration of Dkk2 can be used. […]
For orientation: Reporter assays use an easily measured gene product as a stand-in for the process of interest.

Test [2] relates to Wnt3a activities. Conditions: functional recombinant Dkk2 protein; Wnt reporter gene assay; read-out: IC50, inhibition of Wnt3a activities; cited from earlier work.

The text below walks through data of US20160376555A1, “NOVEL METHODS TO REGENERATE HUMAN LIMBAL STEM CELLS” (The Regents of the University of California, priority 2012, published 2016).

B1: Dkk2: Functional recombinant Dkk2 protein, a Wnt inhibitor (protein, UniProt Q9UBU2 34-259, looked up)
Dickkopf-related protein 2: KLNSIKSSLGGETPGQAANRSAGMYQGLAFGGSKKGKNLGQAYPCSSDKECEVGRYCHSPHQGSSACMVCRRKKKRCHRDGMCCPSTRCNNGICIPVTESILTPHIPALDGTRHRDRNHGHYSNHDLGWQNLGRPHTKMSHIKGHEGDPCLRSSDCIEGFCCARHFWTKICKPVLHQGEVCTKQRKKGSHGLEIFQRCDCAKGLSCKVWKDATYSSKARLHVCQKI
As to B1, in the test on Wnt3a activities [1], the inhibition turned out to be 90%. In addition, the half-inhibitory concentration (IC50) in the test on Wnt3a activities [2] is about 8 nM.

One may read the inhibition as the share of the control response that was lost under treatment. Usually IC50 stands for the midpoint of a concentration-inhibition curve.
